Assay results from patent US20250230251A1 (Bristol-Myers Squibb, published 2025).
Numbering of substitutions follows the chain as printed.

T1: human IL-18Rβ on cells (human, UniProt O95256 20-599)
T1 sequence: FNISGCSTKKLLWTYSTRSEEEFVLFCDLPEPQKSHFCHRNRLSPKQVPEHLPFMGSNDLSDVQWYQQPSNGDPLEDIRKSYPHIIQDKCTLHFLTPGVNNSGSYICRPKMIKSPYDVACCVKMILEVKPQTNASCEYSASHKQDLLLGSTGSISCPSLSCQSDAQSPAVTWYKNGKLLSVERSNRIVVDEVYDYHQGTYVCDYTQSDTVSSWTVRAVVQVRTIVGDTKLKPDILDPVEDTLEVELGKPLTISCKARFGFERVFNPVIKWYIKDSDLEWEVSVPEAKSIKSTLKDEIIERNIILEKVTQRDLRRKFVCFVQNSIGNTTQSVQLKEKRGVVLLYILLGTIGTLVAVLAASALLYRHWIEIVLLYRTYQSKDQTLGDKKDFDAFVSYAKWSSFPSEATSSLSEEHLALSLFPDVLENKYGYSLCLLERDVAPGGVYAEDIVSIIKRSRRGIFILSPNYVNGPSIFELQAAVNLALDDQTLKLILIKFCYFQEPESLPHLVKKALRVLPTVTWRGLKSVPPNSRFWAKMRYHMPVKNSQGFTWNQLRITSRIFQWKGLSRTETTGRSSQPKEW

T2: huIL-18Rβ-HisAvi (human, UniProt O95256 20-356, biotinylated in the Octet blocking assay)
T2 construct: Soluble analyte in all SPR runs; captured on streptavidin sensors in the Octet assay; also called human IL-18Rβ; human IL-18Rβ-Avi-His
T2 sequence: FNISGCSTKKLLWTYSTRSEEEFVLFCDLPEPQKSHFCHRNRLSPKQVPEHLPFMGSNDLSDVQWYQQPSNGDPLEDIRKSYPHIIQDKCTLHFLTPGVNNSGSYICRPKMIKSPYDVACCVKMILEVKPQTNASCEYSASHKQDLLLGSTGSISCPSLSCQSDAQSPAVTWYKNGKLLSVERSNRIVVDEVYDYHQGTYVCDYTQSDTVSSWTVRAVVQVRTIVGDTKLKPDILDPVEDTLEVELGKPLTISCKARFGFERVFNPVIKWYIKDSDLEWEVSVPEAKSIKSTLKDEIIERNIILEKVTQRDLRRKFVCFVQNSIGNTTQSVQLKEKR

T3: cyIL-18Rβ-HisAvi (cynomolgus monkey)
T3 construct: Soluble analyte in SPR; also called cyno IL-18Rβ; cynomolgus monkey IL-18Rβ
T3 chain: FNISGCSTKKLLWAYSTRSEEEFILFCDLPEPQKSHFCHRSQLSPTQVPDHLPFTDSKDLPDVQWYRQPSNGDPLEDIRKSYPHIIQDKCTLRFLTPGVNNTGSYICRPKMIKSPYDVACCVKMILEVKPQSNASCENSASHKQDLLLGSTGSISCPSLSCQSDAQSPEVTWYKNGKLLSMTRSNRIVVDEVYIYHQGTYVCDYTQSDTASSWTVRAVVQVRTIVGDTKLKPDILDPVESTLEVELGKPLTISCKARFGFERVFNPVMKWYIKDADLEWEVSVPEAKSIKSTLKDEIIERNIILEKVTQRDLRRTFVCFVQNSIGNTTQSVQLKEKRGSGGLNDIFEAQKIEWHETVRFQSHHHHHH

B1: P8-V2 (antibody, human IgG1, kappa, name in Kabat numbering)
heavy: QVQLVQSGAEVKKPGASVKVSCKASGYTFTSYYMHWVRQAPGQGLEWMGIINPRGGYTTYAQKFQGRVTMTRDTSTSTVYMELSSLRSEDTAVYYCAKEGRVSPTDYYGMDVWGQGTTVTVSSASTKGPSVFPLAPSSKSTSGGTAALGCLVKDYFPEPVTVSWNSGALTSGVHTFPAVLQSSGLYSLSSVVTVPSSSLGTQTYICNVNHKPSNTKVDKRVEPKSCDKTHTCPPCPAPEAEGAPSVFLFPPKPKDTLMISRTPEVTCVVVDVSHEDPEVKFNWYVDGVEVHNAKTKPREEQYNSTYRVVSVLTVLHQDWLNGKEYKCKVSNKALPAPIEKTISKAKGQPREPQVYTLPPSREEMTKNQVSLTCLVKGFYPSDIAVEWESNGQPENNYKTTPPVLDSDGSFFLYSKLTVDKSRWQQGNVFSCSVMHEALHNHYTQKSLSLSPG
light: not shown
notes: built from the chains of the parent P8 with the printed mutations
B2: P8-V1 (antibody, human IgG1, kappa, V domains shown)
VH: QVQLVQSGAEVKKPGASVKVSCKASGYTFTSYYMHWVRQAPGQGLEWMGIINPRGGYTTYAQKFQGRVTMTRDTSTSTVYMELSSLRSEDTAVYYCAKEGRVSPTDYYGMDVWGQGTTVTVSS
VL: not shown
notes: Variant of P8
B3: P21-V2 (antibody, human IgG1, kappa, name in Kabat numbering)
heavy: QVQLQQSGPGLVKPSETLSLTCTVSGGSISNYYWTWIRQPPGKGLEWIGYISDSGSTNYNPSLKSRVTISVDTSKNQFSLKLSSVTAADTAVYYCARETIVVRGFYFYVMDVWGQGTTVTVSSASTKGPSVFPLAPSSKSTSGGTAALGCLVKDYFPEPVTVSWNSGALTSGVHTFPAVLQSSGLYSLSSVVTVPSSSLGTQTYICNVNHKPSNTKVDKRVEPKSCDKTHTCPPCPAPEAEGAPSVFLFPPKPKDTLMISRTPEVTCVVVDVSHEDPEVKFNWYVDGVEVHNAKTKPREEQYNSTYRVVSVLTVLHQDWLNGKEYKCKVSNKALPAPIEKTISKAKGQPREPQVYTLPPSREEMTKNQVSLTCLVKGFYPSDIAVEWESNGQPENNYKTTPPVLDSDGSFFLYSKLTVDKSRWQQGNVFSCSVMHEALHNHYTQKSLSLSPG
light: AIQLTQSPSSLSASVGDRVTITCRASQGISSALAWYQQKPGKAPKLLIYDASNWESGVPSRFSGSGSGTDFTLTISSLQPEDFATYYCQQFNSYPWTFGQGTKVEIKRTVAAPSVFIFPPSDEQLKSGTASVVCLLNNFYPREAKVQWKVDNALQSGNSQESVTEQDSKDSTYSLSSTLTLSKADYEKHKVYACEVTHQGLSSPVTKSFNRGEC
notes: built from the chains of the parent P21 with the printed mutation
B4: P21-V3 (antibody, human IgG1, kappa, name in Kabat numbering)
heavy: B3 heavy with Q6E
light: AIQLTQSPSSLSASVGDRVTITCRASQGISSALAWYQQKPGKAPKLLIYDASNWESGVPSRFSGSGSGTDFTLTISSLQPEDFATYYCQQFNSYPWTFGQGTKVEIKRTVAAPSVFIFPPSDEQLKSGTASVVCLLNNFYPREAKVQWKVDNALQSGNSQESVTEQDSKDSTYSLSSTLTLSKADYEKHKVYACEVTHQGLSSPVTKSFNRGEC
notes: built from the chains of the parent P21 with the printed mutations
B5: P20-V6 (antibody, human IgG1, kappa, name in Kabat numbering)
heavy: QVQLQESGPGLVKPSETLSLTCTVSGGSINNYYWSWIRQPPGKGLEWIGYIFYSGTTNYNPSLKSRVTISVDTSKNQFSLKLSSVTAADTAVYYCARDVGIAARNSYYYVMDVWGQGTTVTVSSASTKGPSVFPLAPSSKSTSGGTAALGCLVKDYFPEPVTVSWNSGALTSGVHTFPAVLQSSGLYSLSSVVTVPSSSLGTQTYICNVNHKPSNTKVDKRVEPKSCDKTHTCPPCPAPEAEGAPSVFLFPPKPKDTLMISRTPEVTCVVVDVSHEDPEVKFNWYVDGVEVHNAKTKPREEQYNSTYRVVSVLTVLHQDWLNGKEYKCKVSNKALPAPIEKTISKAKGQPREPQVYTLPPSREEMTKNQVSLTCLVKGFYPSDIAVEWESNGQPENNYKTTPPVLDSDGSFFLYSKLTVDKSRWQQGNVFSCSVMHEALHNHYTQKSLSLSPG
light: AIQLTQSPSSLSASVGDRVTITCRASQGISSALAWYQQKPGKAPKFLIYDASSLESGVPSRFSGSGSGTDFTLTISSLQPEDFATYYCQQFNSYPITFGQGTRLEIKRTVAAPSVFIFPPSDEQLKSGTASVVCLLNNFYPREAKVQWKVDNALQSGNSQESVTEQDSKDSTYSLSSTLTLSKADYEKHKVYACEVTHQGLSSPVTKSFNRGEC
notes: built from the chains of the parent P20 with the printed mutation
B6: P20-V2 (antibody, human IgG1, kappa, V domains shown)
VH: QVQLQESGPGLVKPSETLSLTCTVSGGSINNYYWSWIRQPPGKGLEWIGYIFYSGTTNYNPSLKSRVTISVDTSKNQFSLKLSSVTAADTAVYYCARDVGIAARNSYYYVMDVWGQGTTVTVSS
VL: AIQLTQSPSSLSASVGDRVTITCRASQGISSALAWYQQKPGKAPKFLIYEGSSLESGVPSRFSGSGSGTDFTLTISSLQPEDFATYYCQQFNSYPITFGQGTRLEIKR
notes: Variant of P20
B7: P20-V3 (antibody, human IgG1, kappa, V domains shown)
VH: B6 VH
VL: B6 VL with E50G, G51A
notes: Variant of P20

target: T1, human IL-18Rβ on cells; assay: cell-based or functional assay

Row | Binder | IC50, LPS+IL-12 dependent IFNg production, human whole blood [nM]
1 | B1 | 0.87
2 | B2 | 1.09
3 | B3 | 1.65
4 | B4 | 1.63
5 | B5 | 0.85

target: T1, human IL-18Rβ on cells; assay: cell-based or functional assay; remark: another data set of the same source

Row | Binder | Average IC50, LPS+IL-12 dependent IFNg production, human whole blood [nM]
6 | B6 | 0.37
7 | B7 | 1.52

target: T2, huIL-18Rβ-HisAvi; assay: SPR T200, mAb on anti-hFc, 37C, pH 6

Row | Binder | Kd [nM] | koff [s⁻¹] | kon [M⁻¹ s⁻¹]
8 | B1 | 0.18 | 0.00028 | 1.6e+06
9 | B2 | 0.22 | 0.00028 | 1.3e+06
10 | B3 | 0.7 | 0.00043 | 610000
11 | B4 | 0.66 | 0.00039 | 590000
12 | B5 | 0.13 | 6.8e-05 | 520000

Target: T3, cyIL-18Rβ-HisAvi
Assay: SPR T200, mAb on anti-hFc, 37C, pH 6

Row | Binder | Kd [nM] | koff [s⁻¹] | kon [M⁻¹ s⁻¹]
13 | B3 | 14 | 0.0022 | 160000
14 | B4 | 8.4 | 0.0016 | 190000
15 | B5 | 0.61 | 0.00015 | 250000

target: T2, huIL-18Rβ-HisAvi; assay: SPR T200, mAb on anti-hFc, 37C, pH 6; remark: another data set of the same source

Row | Binder | Kd [nM] | koff [s⁻¹] | kon [M⁻¹ s⁻¹]
16 | B4 | 0.66 | 0.00039 | 590000
17 | B6 | 0.29 | 0.00013 | 440000
18 | B7 | 0.36 | 0.00014 | 390000
19 | B5 | 0.13 | 6.8e-05 | 520000

Target: T3, cyIL-18Rβ-HisAvi
Assay: SPR T200, mAb on anti-hFc, 37C, pH 6
Remark: another data set of the same source

Row | Binder | Kd [nM] | koff [s⁻¹] | kon [M⁻¹ s⁻¹]
20 | B4 | 8.4 | 0.0016 | 190000
21 | B6 | 1.4 | 0.00023 | 160000
22 | B7 | 2.4 | 0.00042 | 180000
23 | B5 | 0.61 | 0.00015 | 250000

target: T2, huIL-18Rβ-HisAvi; assay: SPR T200, mAb on anti-hFc, 37C, pH 7.4

Row | Binder | Kd [nM] | koff [s⁻¹] | kon [M⁻¹ s⁻¹]
24 | B1 | 0.73 | 0.00049 | 680000
25 | B2 | 0.8 | 0.00047 | 580000
26 | B3 | 2.3 | 0.00053 | 230000
27 | B4 | 2.3 | 0.00054 | 240000
28 | B5 | 1 | 0.00022 | 210000

Target: T3, cyIL-18Rβ-HisAvi
Assay: SPR T200, mAb on anti-hFc, 37C, pH 7.4

Row | Binder | Kd [nM] | koff [s⁻¹] | kon [M⁻¹ s⁻¹]
29 | B3 | 22 | 0.0032 | 150000
30 | B4 | 17 | 0.0027 | 160000
31 | B5 | 2.9 | 0.00032 | 110000

target: T2, huIL-18Rβ-HisAvi; assay: SPR T200, mAb on anti-hFc, 37C, pH 7.4; remark: another data set of the same source

Row | Binder | Kd [nM] | koff [s⁻¹] | kon [M⁻¹ s⁻¹]
32 | B4 | 2.3 | 0.00054 | 240000
33 | B6 | 0.24 | 8.9e-05 | 360000
34 | B7 | 0.72 | 0.00019 | 270000
35 | B5 | 1 | 0.00022 | 210000

Target: T3, cyIL-18Rβ-HisAvi
Assay: SPR T200, mAb on anti-hFc, 37C, pH 7.4
Remark: another data set of the same source

Row | Binder | Kd [nM] | koff [s⁻¹] | kon [M⁻¹ s⁻¹]
36 | B4 | 17 | 0.0027 | 160000
37 | B6 | 0.92 | 0.00016 | 180000
38 | B7 | 1.5 | 0.0003 | 200000
39 | B5 | 2.9 | 0.00032 | 110000
